{
  "source": "paper PMC4960638",
  "about": "“Changes in the folding landscape of the WW domain provide a molecular mechanism for an inherited genetic syndrome” (Scientific Reports, 2016)",
  "biological_target": "the molecule itself",
  "assay": "SEC; size exclusion chromatography in the purification of the WW domain; column and buffer not shown (SI)",
  "note": "Bridges are numbered along the chain shown (N, C = ends). Where no end group is shown, it is not given here.",
  "data": [
    {"protein": "GLPPSWYKVFDPSCGLPYCWNADTDLVSWLSPHDPNS (domain or fragment, human, UniProt O60828 47-83, looked up, disulfide 14-19 (inferred); not fully specified, the mutation causes Golabi-Ito-Hall syndrome; also called Y65C WW domain; WW Y65C; source: purified by size exclusion chromatography)", "note": "[WW domain of polyglutamine tract-binding protein 1 (PQBP1), Y65C mutant, 37 amino acid construct]", "values": [
      {"measurement": "stoichiometry N", "result": 2}
    ]}
  ]
}
